The source of these data is patent US20180117174A1 (GANYMED PHARMACEUTICALS, published 2018).

The target of experiment [1] is human claudin 18 splice variant 2 (CLDN18.2) (human). In words: cell-based or functional assay.
Experiment [2] has the same target. In words: cell-based or functional assay. This is another data set of the same source.
Experiment [3] has the same target. Put plainly: cell-based or functional assay. This is another data set of the same source.
In experiment [4] the target is T1, human claudin 18 splice variant 2 (CLDN18.2) (human).
T1 construct: also called claudin 18 isotype 2
In words: flow cytometry on BxPC-3~CLDN18.2 cells, second assay. A general note: In flow cytometry, cells or beads pass a laser one at a time.

The target of experiment [5] is T1, human claudin 18 splice variant 2 …. In words: flow cytometry on BxPC-3~CLDN18.2 cells, antibody up to 20 µg/ml.
Procedure: (§1) 100 μl of the cell suspension per well (correspond to 2×10⁵ cells/well) were transferred to a round bottom 96-well microtiter plate. […] The cells were centrifuged for 1 min at 1500 rpm and the supernatant was discarded. […] After incubation, 100 μl FACS buffer were added to each sample, the cells were centrifuged for 1 min at 1500 rpm and the supernatant was discarded. The washing step with FACS buffer was repeated twice. Finally, the cells were resuspended in 100 μl FACS buffer and binding was determined using a BD FACS Array Bioanalyzer.
The target is the same in experiment [6]. In words: flow cytometry on HEK293~CLDN18.2 cells, antibody up to 20 µg/ml.
Procedure: Binding was analyzed by flow cytometry at antibody concentrations up to 20 μg/ml. Data points (n=2 replicates) are depicted as mean±SD.
as §1
The binding specificity was analyzed by flow cytometry using HEK293 transfectants engineered to overexpress human CLDN18.2 or the highly homologous protein human CLDN18.1.
Experiment [7] shares this target. Put plainly: flow cytometry on NCI-N87~CLDN18.2 cells, antibody up to 20 µg/ml.
Procedure: as §1
Experiment [8] shares this target. In words: flow cytometry (Table 6); ProteinL-FITC detection; binding assay 2.
Procedure: as §1
(§2) Antibodies marked with the same number (1 or 2) were tested in the same binding assay.
For experiment [9] the target is unchanged. Put plainly: flow cytometry on NUGC-4 10cE8 cells (endogenous CLDN18.2), second assay.
Experiment [10] has the same target. Put plainly: flow cytometry (Table 6); APC-conjugated secondary antibody; binding assay 1.
Procedure: as §1, §2
The target is the same in experiment [11]. In words: flow cytometry on NUGC-4 10cF7-5 sort 3a cells (endogenous CLDN18.2), second assay.
Experiment [12] has the same target. In words: flow cytometry, HEK293 cells stably expressing CLDN18.2; ProteinL-FITC detection; binding assay 4.
For experiment [13] the target is unchanged. Put plainly: flow cytometry, HEK293 cells stably expressing CLDN18.2; APC-conjugated secondary antibody; binding assay 1.
Experiment [14] has the same target. Put plainly: flow cytometry, HEK293 cells stably expressing CLDN18.2; APC-conjugated secondary antibody; binding assay 2.
The target is the same in experiment [15]. In words: flow cytometry, HEK293 cells stably expressing CLDN18.2; APC-conjugated secondary antibody; binding assay 3.
Procedure: as §1
For experiment [16] the target is unchanged. In words: cell-based or functional assay. The source holds these as a separate data set.
Experiment [17] shares this target. Put plainly: flow cytometry on NUGC-4 10cE8 cells (endogenous CLDN18.2), antibody up to 20 µg/ml.
Procedure: as §1
Binding properties were tested at different antibody concentrations in a range of 0.1 to 20 μg/ml (FIG. 4, Table 8).
Experiment [18] shares this target. Put plainly: flow cytometry on NUGC-4 10cF7-5 sort 3a cells (endogenous CLDN18.2), antibody up to 20 µg/ml.
Procedure: as §1
Experiment [19] shares this target. Put plainly: flow cytometry (Table 6); ProteinL-FITC detection; binding assay 2; normalized to IMAB362.

B1: IMAB362 (antibody, V domains shown)
VH: QVQLQQPGAELVRPGASVKLSCKASGYTFTSYWINWVKQRPGQGLEWIGNIYPSDSYTNYNQKFKDKATLTVDKSSSTAYMQLSSPTSEDSAVYYCTRSWRGNSFDYWGQGTTLTVSS
VL: DIVMTQSPSSLTVTAGEKVTMSCKSSQSLLNSGNQKNYLTWYQQKPGQPPKLLIYWASTRESGVPDRFTGSGSGTDFTLTISSVQAEDLAVYYCQNDYSYPFTFGSGTKLEIKR
notes: Chimeric human IgG1 kappa; CDR1 at 45-52); also called chim mAb362; chim mAB362
Usually EC50 stands for the midpoint of the concentration-response curve. High values mean weaker potency, low ones greater potency. Regarding B1, in [1], the “Cell viability EC50 [ng/ml], Fab-ZAP endocytosis assay on HEK293~CLDN18.2 cells” value came out at 11 ng/mL. Further, the “Cell viability EC50 [ng/ml], Fab-ZAP endocytosis assay on HEK293~CLDN18.2 cells (second assay)” value in [1] worked out at 13 ng/mL. In addition, the “ADCC EC50 [ng/ml], NUGC-4 10cF7_5 sort3a p3151#10 cells, PBMC of Donor 1” value in experiment [2] turned out to be 1230 ng/mL. Besides, in experiment [2], the “ADCC EC50 [ng/ml], NUGC-4 10cF7_5 sort3a p3151#10 cells, PBMC of Donor 2” value was determined as 142 ng/mL. In [3], the “CDC EC50 [ng/ml], KATO-III FGF-BP#12 adM p3151#25 cells” value is 19300 ng/mL. Besides, the “CDC EC50 [ng/ml], NUGC-4 10cF7_5 sort3a p3151#10 cells” value in [3] is 28000 ng/mL. In addition, the EC50 in experiment [4] was 0.113 µg/mL; in experiment [5] it was 0.104 µg/mL; in experiment [6] it was 1.12 µg/mL; in experiment [7], 0.31 µg/mL; in experiment [8], 1.24 µg/mL; in experiment [9], 3.67 µg/mL. Also, the EC50 in [10] came to 0.584 µg/mL; in experiment [11], 2.38 µg/mL; in [12] it was 1.24 µg/mL; in [13], 0.52 µg/mL; in [14], 0.584 µg/mL; in [15], 0.652 µg/mL. Also, the “Max. binding [MFI]” value is 18500 MFI in experiment [10], 5320 MFI in [12] and 7950 MFI in experiment [15].

B2: IMAB362-vcMMAE (antibody, human IgG1, kappa, V domains shown)
VH: QVQLQQPGAELVRPGASVKLSCKASGYTFTSYWINWVKQRPGQGLEWIGNIYPSDSYTNYNQKFKDKATLTVDKSSSTAYMQLSSPTSEDSAVYYCTRSWRGNSFDYWGQGTTLTVSS
VL: DIVMTQSPSSLTVTAGEKVTMSCKSSQSLLNSGNQKNYLTWYQQKPGQPPKLLIYWASTRESGVPDRFTGSGSGTDFTLTISSVQAEDLAVYYCQNDYSYPFTFGSGTKLEIKR
modifications: vcMMAE (Val-Cit linker) coupled to sulfhydryl groups set on lysine amines with 2-iminothiolane; drug to antibody ratio 4.5; sites not stated
notes: also called MMAE-conjugated IMAB362
On to B2, for which the “EC50 [ng/ml] of reduction of cell viability (XTT, 72 h), BxPC-3~CLDN18.2 cells” value in experiment [16] came to 48 ng/mL. For the same molecule, in experiment [16], the “EC50 [ng/ml] of reduction of cell viability (XTT, 72 h), BxPC-3~CLDN18.2 cells, second assay” value was found to be 43 ng/mL. The “EC50 [ng/ml] of reduction of cell viability (XTT, 72 h), NCI-N87~CLDN18.2 cells, second assay” value in experiment [16] amounted to 180 ng/mL. The “EC50 [ng/ml] of reduction of cell viability (XTT, 72 h), NUGC-4 10cE8 cells” value in experiment [16] turned out to be 631 ng/mL. In experiment [16], the “EC50 [ng/ml] of reduction of cell viability (XTT, 72 h), NUGC-4 10cF7-5 sort 3a cells” value was 338 ng/mL. For the same molecule, in experiment [2], the “ADCC EC50 [ng/ml], NUGC-4 10cF7_5 sort3a p3151#10 cells, PBMC of Donor 1” value is 1080 ng/mL. Moreover, the “ADCC EC50 [ng/ml], NUGC-4 10cF7_5 sort3a p3151#10 cells, PBMC of Donor 2” value in experiment [2] turned out to be 275 ng/mL. In addition, the “CDC EC50 [ng/ml], KATO-III FGF-BP#12 adM p3151#25 cells” value in experiment [3] was determined as 7240 ng/mL. Besides, in experiment [3], the “CDC EC50 [ng/ml], NUGC-4 10cF7_5 sort3a p3151#10 cells” value is 28300 ng/mL. The EC50 turned out to be 0.261 µg/mL in experiment [4]; 0.183 µg/mL in experiment [5]; 1.59 µg/mL in experiment [6]; 0.103 µg/mL in experiment [7]; 5.46 µg/mL in [9]; 4.05 µg/mL in experiment [11]. For the same molecule, the EC50 in experiment [17] is 2.83 µg/mL; in [18] it was 2.52 µg/mL.

B3: chim mAB294 (antibody, V domains shown)
VH: QIQLVQSGPELKKPGETVKISCKASGYTFTNYGMNWVKQAPGKGLKWMGWINTNTGEPTYAEEFKGRFAFSLETSASTAYLQINNLKNEDTATYFCARLGFGNAMDYWGQGTSVTVSS
VL: DIVMTQSPSSLTVTAGEKVTMSCKSSQSLLNSGNQKNYLTWYQQKPGQPPKLLIYWASTRESGVPDRFTGSGSGTDFTLTISSVQAEDLAVYYCQNDYSYPLTFGAGTKLELKR
Turning to B3, in [1], the “Cell viability EC50 [%] normalized to IMAB362, Fab-ZAP endocytosis assay” value is 91%; the “Cell viability EC50 [ng/ml], Fab-ZAP endocytosis assay on HEK293~CLDN18.2 cells” value was determined as 10 ng/mL; the “Max. viability reduction normalized [%], Fab-ZAP endocytosis assay” value worked out at 86%. Besides, the EC50 in experiment [8] was 5.7 µg/mL. Moreover, in experiment [19], the “EC50 normalized [%]” value came out at 459%.
